The source of these data is patent US20200339702A1 (ULTRAHUMAN THIRTEEN, published 2020).

Experiment [1] addresses T1, human ERBB3 on transiently transfected HEK-293 cells (human, UniProt P21860 20-1342).
T1 construct: also called human ERBB3+ HEK-293 cells
The experiment can be described thus: flow cytometry, human ERBB3-transfected HEK-293. The protocol:
(§1) Purified IgGs were tested in FACs for binding to human and rhesus monkey ERBB3 expressed on transiently transfected HEK-293 cells and HEK-293 wild-type cells. The IgG samples were titrated in three-fold serial dilutions starting at 500 nM to 0.008 nM. Binding of IgGs was detected with a mouse anti-human IgG conjugated to FITC. Results were analyzed by examining the Mean Fluorescence Intensity (MFI) of 10000 cells per sample in the BL-1 channel detector of a flow cytometer (Attune™ NxT Acoustic Focusing Cytometer, Invitrogen/ThermoFisher Scientific).
(§2) Antibodies to ERBB3 were analysed for concentration-dependent binding at the cell surface via flow cytometry. HEK-293 cells were transiently transfected with either human or rhesus ERBB3 full-length cDNAs. Anti-ERBB3 IgGs and an isotype control were then all tested in IgG1null format, over a concentration range of 500-0.008 nM for binding to human (FIG. 5A) and rhesus (FIG. 5B) transfected cells.
(A flow cytometer gives signals particle by particle.)

Experiment [2] has as its target T2, rhesus ERBB3 on transiently transfected HEK-293 cells (rhesus monkey (Macaca mulatta), UniProt P21860 20-1342 (human entry)).
T2 construct: also called rhesus ERBB3+ HEK-293 cells
T2 chain: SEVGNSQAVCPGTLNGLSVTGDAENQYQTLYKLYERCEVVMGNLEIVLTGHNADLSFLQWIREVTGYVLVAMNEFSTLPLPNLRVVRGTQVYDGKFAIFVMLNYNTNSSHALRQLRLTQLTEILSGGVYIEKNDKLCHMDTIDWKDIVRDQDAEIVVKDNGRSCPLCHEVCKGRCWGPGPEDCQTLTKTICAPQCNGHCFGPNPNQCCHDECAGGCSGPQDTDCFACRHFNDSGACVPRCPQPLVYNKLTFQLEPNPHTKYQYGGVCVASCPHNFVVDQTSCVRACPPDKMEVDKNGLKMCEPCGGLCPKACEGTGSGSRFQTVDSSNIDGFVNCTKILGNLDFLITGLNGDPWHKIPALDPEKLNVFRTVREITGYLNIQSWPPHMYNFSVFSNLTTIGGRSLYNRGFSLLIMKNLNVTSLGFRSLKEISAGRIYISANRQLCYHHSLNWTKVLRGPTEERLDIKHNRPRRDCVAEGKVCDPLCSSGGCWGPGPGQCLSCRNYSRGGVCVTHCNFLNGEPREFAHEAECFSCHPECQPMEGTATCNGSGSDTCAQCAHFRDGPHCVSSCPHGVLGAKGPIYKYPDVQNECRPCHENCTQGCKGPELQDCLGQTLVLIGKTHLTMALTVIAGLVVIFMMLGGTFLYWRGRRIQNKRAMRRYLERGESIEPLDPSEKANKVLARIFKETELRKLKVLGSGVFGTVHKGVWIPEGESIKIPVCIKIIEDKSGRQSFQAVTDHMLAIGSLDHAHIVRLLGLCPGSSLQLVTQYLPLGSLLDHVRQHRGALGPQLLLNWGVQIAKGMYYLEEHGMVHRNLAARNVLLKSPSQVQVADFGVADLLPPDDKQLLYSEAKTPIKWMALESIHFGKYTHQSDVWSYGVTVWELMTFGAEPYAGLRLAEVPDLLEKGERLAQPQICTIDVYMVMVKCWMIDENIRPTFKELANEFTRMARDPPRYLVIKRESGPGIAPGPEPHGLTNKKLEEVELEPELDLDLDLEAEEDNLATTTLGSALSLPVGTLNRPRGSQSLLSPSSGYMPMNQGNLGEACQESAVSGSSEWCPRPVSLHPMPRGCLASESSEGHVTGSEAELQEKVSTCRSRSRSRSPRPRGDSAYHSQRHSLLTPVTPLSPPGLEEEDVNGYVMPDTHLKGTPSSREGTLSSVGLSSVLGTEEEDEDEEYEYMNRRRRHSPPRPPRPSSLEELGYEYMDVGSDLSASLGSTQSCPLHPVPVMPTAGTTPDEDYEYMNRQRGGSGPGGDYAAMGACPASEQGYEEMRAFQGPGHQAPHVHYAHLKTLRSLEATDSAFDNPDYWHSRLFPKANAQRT
The experiment can be described thus: flow cytometry, rhesus ERBB3-transfected HEK-293. The protocol: as §1, §2

Experiment [3] deals with T3, human ERBB3 His tagged, monomeric (human, UniProt P21860 20-643, biotinylated in the Alphascreen assays (sites not given)).
T3 construct: Used unbiotinylated as Biacore analyte and biotinylated in Alphascreen; treated as one molecule; also called human ERBB3-His (Acrobiosystems); biotinylated monomeric human ERBB3
The experiment can be described thus: SPR (Biacore), captured IgG, monomeric ERBB3-His analyte. As to the method:
(§3) Affinity (KD) of purified IgGs was determined via SPR with antigen in-solution on a Biacore® 3000 (GE). A mouse anti-human antibody (CH1 specific) was immobilized on a CM5 Sensor Chip to a level of 2000 RU in acetate buffer at pH 4.5 using amine coupling following the Wizard instructions for two channels. One channel was used for background signal correction. The standard running buffer HBS-EP pH 7.4 was used. Regeneration was performed with a single injection of 10 μl of 10 mM Glycine at pH 1.5 at […]. IgG samples were injected for 2 minutes at 50 nM at 30 μl/min followed by an off-rate of 60 seconds. The monomeric antigen (human ERBB3 His tagged or rhesus monkey ERBB3 His tag) was injected in two fold serial dilutions from 3 nM down to 0.2 nM, for 2 minutes at 30 μl/min followed by an off-rate of 300 seconds. The obtained sensorgrams were analysed using the Biacore® 3000 evaluation (BlAevaluation) software. The KD was calculated by simultaneous fitting of the association and dissociation phases to a 1:1 Langmuir binding model.
(§4) Biacore® analyses of binding affinity were performed for all IgGs to solution-phase, monomeric human and rhesus ERBB3 proteins.
Background: In SPR one partner is held on a chip, and binding of the other changes the refractive index at the surface.

The target in experiment [4] is T4, rhesus monkey ERBB3 His tag, monomeric (rhesus monkey (Macaca mulatta), UniProt P21860 20-643 (human entry), limits assumed).
T4 chain: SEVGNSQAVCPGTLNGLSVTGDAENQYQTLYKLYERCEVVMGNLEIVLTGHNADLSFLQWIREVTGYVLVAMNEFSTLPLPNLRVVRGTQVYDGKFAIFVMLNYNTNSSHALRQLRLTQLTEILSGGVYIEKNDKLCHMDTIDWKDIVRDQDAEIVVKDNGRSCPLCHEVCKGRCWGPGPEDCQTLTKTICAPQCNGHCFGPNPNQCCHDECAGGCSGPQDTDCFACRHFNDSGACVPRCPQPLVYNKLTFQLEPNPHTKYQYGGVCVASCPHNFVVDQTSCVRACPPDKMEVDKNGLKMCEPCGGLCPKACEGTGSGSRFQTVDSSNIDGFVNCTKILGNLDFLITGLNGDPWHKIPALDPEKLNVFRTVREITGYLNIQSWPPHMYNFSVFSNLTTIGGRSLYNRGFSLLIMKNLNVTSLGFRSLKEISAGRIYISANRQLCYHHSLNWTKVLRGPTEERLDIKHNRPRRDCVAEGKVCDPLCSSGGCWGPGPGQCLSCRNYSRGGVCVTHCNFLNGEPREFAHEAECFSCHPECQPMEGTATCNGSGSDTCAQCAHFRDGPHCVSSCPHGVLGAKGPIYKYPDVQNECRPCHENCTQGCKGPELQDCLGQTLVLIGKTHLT
The description is as above. The protocol:
as §3, §4

B1: 16B09 IgG1null (antibody, V domains shown)
VH: QVQLVESGGGLVKPGGSLRLSCAASGFTFSDYSMSWIRQAPGKGLEWVSTISDSGTYTYYPDSVKGRFTISRDNAKNSLYLQMNSLRAEDTAVYYCAREWGDYDGFDFWGQGTLVTVSS
VL: DIQMTQSPSSLSASVGDRVTITCRASQEISSYLSWYQQKPGKAPKLLIYAASTLQSGVPSRFSGSGSGTDFTLTISSLQPEDFATYYCLQYDSTPLTFGGGTKVEIK
notes: Human IgG1null (L234A, L235A, G237A) and human Ckappa
For B1, the “maximum MFI, fold over isotype control background” value (“maximum MFI, fold” below) in experiment [1] and in experiment [2] was greater than 20 fold in each case. The dissociation constant Kd in experiment [3] is 0.089 nM; in experiment [4], 0.21 nM. Further, the off-rate (koff) in experiment [3] was determined as 0.0014 s⁻¹; in experiment [4], 0.0027 s⁻¹. The association rate constant (kon) in experiment [3] was 1.6e+07 M⁻¹ s⁻¹; in experiment [4], 1.3e+07 M⁻¹ s⁻¹.

B2: MH2 IgG1null (antibody, V domains shown)
VH: QVQLVESGGGLVKPGGSLRLSCAASGFTFSDYGMSWIRQAPGKGLEWVSTISDSGSYIYYADSVKGRFTISRDNAKNSLYLQMNSLRAEDTAVYYCAREWGDYDGFDFWGQGTLVTVSS
VL: DIQMTQSPSSLSASVGDRVTITCRASQSISSYLSWYQQKPGKAPKLLIYAASSLQSGVPSRFSGSGSGTDFTLTISSLQPEDFATYYCLQYDSTPLTFGGGTKVEIK
notes: Designer (Maximally Humanized) clone; Human IgG1null and human Ckappa
For B2, the “maximum MFI, fold” value in experiment [1] was greater than 20 fold. Moreover, the “maximum MFI, fold” value in experiment [2] is greater than 20 fold. In experiment [3], this molecule had a Kd of 0.27 nM, a koff of 0.0029 s⁻¹ and an on-rate (kon) of 1.1e+07 M⁻¹ s⁻¹. Also, in experiment [4], the dissociation constant Kd came to 0.23 nM, the koff worked out at 0.0048 s⁻¹ and the kon is 2e+07 M⁻¹ s⁻¹.

B3: 17H10 IgG1null (antibody, V domains shown)
VH: QVQLVESGGGLVKPGGSLRLSCAASGFTFSDYGMSWIRQAPGKGLEWVSTISDGGSYTYYADSVKGRFTISRDNAKNSLYLQMNSLRAEDTAVYYCAREWGDYDGFDEWGQGTLVTVSS
VL: DIQMTQSPSSLSASVGDRVTITCRASQSISGYLSWYQQKPGKAPKLLIYAASTLQSGVPSRFSGSGSGTDFTLTISSLQPEDFATYYCLQYDSTPYTFGGGTKVEIK
notes: Human IgG1null and human Ckappa
On to B3, for which the “maximum MFI, fold” value in experiment [1] is greater than 20 fold. In experiment [2], the “maximum MFI, fold” value was greater than 20 fold. In experiment [3], this molecule displayed a dissociation constant Kd of 0.19 nM, an off-rate (koff) of 0.0017 s⁻¹ and a kon of 9.3e+06 M⁻¹ s⁻¹. In experiment [4], this molecule showed an equilibrium dissociation constant (Kd) of 0.65 nM, an off-rate constant (koff) of 0.0018 s⁻¹ and an on-rate (kon) of 2.7e+06 M⁻¹ s⁻¹.

B4: MH1 IgG1null (antibody, V domains shown)
VH: QVQLVESGGGLVKPGGSLRLSCAASGFTFSDYGMSWIRQAPGKGLEWVSTISDSGSYIYYADSVKGRFTISRDNAKNSLYLQMNSLRAEDTAVYYCARELGDYDGFDYWGQGTLVTVSS
VL: DIQMTQSPSSLSASVGDRVTITCRASQSISSYLSWYQQKPGKAPKLLIYAASSLQSGVPSRFSGSGSGTDFTLTISSLQPEDFATYYCLQYDSTPLTFGGGTKVEIK
notes: as for B2
Take B4: the “maximum MFI, fold” value in experiment [1] is greater than 20 fold. The “maximum MFI, fold” value in experiment [2] was greater than 20 fold. Moreover, in experiment [3], the Kd is 0.51 nM, the koff is 0.0035 s⁻¹ and the kon was determined as 6.8e+06 M⁻¹ s⁻¹. In experiment [4], binding was characterised by a dissociation constant (Kd) of 0.45 nM, the koff was found to be 0.0056 s⁻¹ and the on-rate (kon) turned out to be 1.3e+07 M⁻¹ s⁻¹.

B5: MH5 IgG1null (antibody, V domains shown)
VH: QVQLVESGGGLVKPGGSLRLSCAASGFTFSDYGMSWIRQAPGKGLEWVSTISDSGSTIYYADSVKGRFTISRDNAKNSLYLQMNSLRAEDTAVYYCAREYGDYDGFDYWGQGTLVTVSS
VL: DIQMTQSPSSLSASVGDRVTITCRASQSISSYLSWYQQKPGKAPKLLIYAASSLQSGVPSRFSGSGSGTDFTLTISSLQPEDFATYYCLQYDSTPLTFGGGTKVEIK
notes: as for B2
B5: in experiment [1], the “maximum MFI, fold” value is greater than 20 fold. Also, the “maximum MFI, fold” value in experiment [2] is greater than 20 fold. In experiment [3], this molecule displayed a Kd of 0.71 nM, a koff of 0.0041 s⁻¹ and a kon of 5.8e+06 M⁻¹ s⁻¹. Further, in experiment [4], the dissociation constant (Kd) is 0.51 nM, the off-rate constant (koff) came to 0.006 s⁻¹ and the association rate constant (kon) worked out at 1.2e+07 M⁻¹ s⁻¹.

B6: MH4 IgG1null (antibody, V domains shown)
VH: QVQLVESGGGLVKPGGSLRLSCAASGFTFSDYGMSWIRQAPGKGLEWVSTISDSGSYIYYADSVKGRFTISRDNAKNSLYLQMNSLRAEDTAVYYCAREWGDYDGFDEWGQGTLVTVSS
VL: DIQMTQSPSSLSASVGDRVTITCRASQSISSYLSWYQQKPGKAPKLLIYAASSLQSGVPSRFSGSGSGTDFTLTISSLQPEDFATYYCLQYDSTPLTFGGGTKVEIK
notes: as for B2
Regarding B6, the “maximum MFI, fold” value in experiment [1] was greater than 20 fold. Moreover, the “maximum MFI, fold” value in experiment [2] is greater than 20 fold. In experiment [3], the Kd was 0.26 nM, the koff was 0.0029 s⁻¹ and the kon was determined as 1.1e+07 M⁻¹ s⁻¹. In experiment [4], this molecule returned a Kd of 0.21 nM, a koff of 0.0047 s⁻¹ and a kon of 2.2e+07 M⁻¹ s⁻¹.

In general, Kd refers to a measure of binding affinity in units of concentration. What is called koff is the rate constant with which the complex falls apart. Broadly, the kon is the second-order rate constant of association.
